From patent publication US20250042961A1, “P53 PEPTIDOMIMETIC MACROCYCLES” (MERCK SHARP & DOHME LLC, priority 2021, published 2025) come the findings set out here.

Bridges are numbered along the chain shown (N, C = ends). [ ]: non-standard residue; d: D form. dPhe(4-CF3) = N[C@H](Cc1ccc(C(F)(F)F)cc1)C(=O)O; dTrp(6-F) = N[C@H](Cc1c[nH]c2cc(F)ccc12)C(=O)O; R5 = C=CCCC[C@@](C)(N)C(=O)O; FAM = carboxyfluorescein Bounds are passed on as bounds.

In test [1] the target is MDM2 (in HCT116 cells) (human), Q00987. The test is described as follows: cell-based or functional assay.
The target of test [2] is Purified MDM2 (1-125) protein (human MDM2 1-125 sequence comprising a modified TEV cleavage site, pNIC-GST fusion) (human), Q00987. Description: competitive fluorescence anisotropy (FP) against FAM-labeled 12/1 peptide on MDM2 (1-125); apparent Kd. For orientation: Fluorescence polarisation rises when a labelled molecule tumbles more slowly, as on binding a larger partner.

Test [3] addresses T1, MDM4 protein (human), O15151.
T1 chain: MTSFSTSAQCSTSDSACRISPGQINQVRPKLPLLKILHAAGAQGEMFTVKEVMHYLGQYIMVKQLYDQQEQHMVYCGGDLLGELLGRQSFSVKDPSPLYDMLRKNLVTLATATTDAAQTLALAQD
The test is described as follows: direct fluorescence anisotropy titration of MDM4 against 50 nM FAM-labeled peptide; apparent Kd, 1:1 model.

Chain of Purified MDM2 (1-125) protein (human MDM2 1-125 sequence comprising a modified TEV cleavage site, pNIC-GST fusion) (human), Q00987 (Q00987 1-125 limits assumed): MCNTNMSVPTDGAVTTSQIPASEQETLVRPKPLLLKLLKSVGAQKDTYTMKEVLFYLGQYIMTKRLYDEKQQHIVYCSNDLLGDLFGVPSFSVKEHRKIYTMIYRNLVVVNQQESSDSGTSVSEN

B1: Acetyl-^DPMI-δ-(6-10 olefin staple) (D-K9D-Q, D-R12D-S, 9x(D-A) polypeptide tail)-NH2 (peptide)
peptide: Ac-[dT][dA][dTrp(6-F)][dY][dA][R5][dPhe(4-CF3)][dE][dQ][R5][dL][dS][dA][dA][dA][dA][dA][dA][dA][dA][dA]-NH2
modifications: staple 6-10; also: mixture of cis-trans isomers
In test [1], B1 had a p53 activity EC50 (µM) (0% FBS, 4 h) of 50 µM and a p53 activity EC50 (µM) (10% FBS, 16 h) of over 50 µM. Further, the Kd in test [2] amounted to 21.7 nM.

B2: carboxyfluorescein (FAM)-labeled 12/1 peptide 13 (FAM-…-NH2) (peptide)
peptide: {FAM}-RFMDYWEGL-NH2
modifications: also: places C-terminal amide at E7
With B2, the Kd in test [3] was found to be 4 nM.

B3: Acetyl-^DPMI-δ-(6-10 olefin staple) (D-K9D-Q, D-R12D-S, 6x(D-A) polypeptide tail)-NH2 (peptide)
peptide: Ac-[dT][dA][dTrp(6-F)][dY][dA][R5][dPhe(4-CF3)][dE][dQ][R5][dL][dS][dA][dA][dA][dA][dA][dA]-NH2
modifications: staple 6-10; also: mixture of cis-trans isomers
Turning to B3, in test [1], the p53 activity EC50 (µM) (0% FBS, 4 h) is 0.61 µM and the p53 activity EC50 (µM) (10% FBS, 16 h) amounted to 0.28 µM. In test [2], the Kd amounted to 3.2 nM.
